Measured values reported in the RNAGym collection of RNA variant scans (doi:10.7554/elife.90254).

B1: OR4K15 (parent)
chain: GUUAACGGUCAUAGGCCAUGGAAACUAGGAGCACCAUUUCGCUGCCAGUGAAGAAAUGAACAAAGAAAAUCUGGGCCAGGCAGGCAUCAAAAGAAAUAGUCUUGCGCUCAACCAGAAAGUCUGUAAUCAUUUUAAGGGUA

Variants of: B1
Experiment: self-cleavage, relative activity (ratio to wild type); higher = more cleavage; in vitro, sequencing; the parent is a self-cleaving ribozyme

| Variant | self-cleavage |
| --- | --- |
| U3C G48A | 0.97 |
| U3C A114U | 0.04 |
| U3A G53A | 1.01 |
| A4G | 0.87 |
| A4C | 0.61 |
| U3C A23C | 1.42 |
| A4G A62G | 1.09 |
| U3C U132G | 0.36 |
| U3C A82U | 0.21 |
| U3A A66G | 1.1 |
| U3C A30U | 1.37 |
| U2C U131G | 1.08 |
| U3A U127A | 1.84 |
| U3C C32U | 1.2 |
| A4G A30G | 0.64 |
| A4G A116G | 0.94 |
| A4G A116U | 0.26 |
| U2C U100A | 0.48 |
| U3C C77U | 0.69 |
| A4G A56U | 0.65 |
| U2G A135G | 0.69 |
| U2C U124C | 0.42 |
| U2G A111U | 0.17 |
| U2G A111G | 0 |

| Variant | self-cleavage |
| --- | --- |
| U3C A117G | 1.69 |
| A4G A52G | 1.08 |
| U2C U120C | 0.43 |
| A4G A68G | 0.87 |
| U3A A23G | 1.17 |
| U3C C105U | 0.06 |
| U3C A63U | 1.02 |
| U3A A92G | 1.3 |
| A4G A24G | 1.62 |
| A4C A24G | 0.75 |
| A4C A24U | 0.5 |
| A4G A27G | 1.52 |
| U3C A18U | 0.78 |
| U3C A18G | 1.02 |
| U2G U39C | 2.03 |
| U3G A52G | 0.67 |
| U3A U130G | 0.73 |
| A4G A64C | 0.79 |
| U3A U100C | 1.63 |
| U3A A111G | 0.08 |
| U2G A11G | 1.05 |
| U3G A11U | 0.74 |
| A4G A23G | 1.09 |
| U2G A33G | 0.43 |

| Variant | self-cleavage |
| --- | --- |
| U3G A110U | 1.67 |
| U2G | 0.92 |
| A4G A59G | 1.04 |
| A4G A66G | 0.53 |
| U3C U124C | 0.9 |
| U2G U57C | 1.13 |
| U2G U12A | 1.45 |
| U2G U12C | 0.61 |
| U2C U108A | 0.01 |
| A4G A86U | 0.95 |
| A4G A86G | 0.72 |
| U2C U132C | 1.4 |
| U3A G65U | 0.33 |
| U2C U103C | 0.99 |
| U3C U70C | 0.76 |
| U2G U19A | 0.72 |
| U3A U70A | 1.46 |
| U2G A51G | 0.95 |
| U3C U12C | 1.24 |
| U3C A89U | 0.54 |
| U3C A89G | 0.99 |
| U3C A86C | 0.37 |
| U3C A86G | 1.05 |
| A4G A51G | 1.01 |

| Variant | self-cleavage |
| --- | --- |
| U2G U9C | 1.05 |
| U2G U130C | 0.3 |
| A4G A22G | 1.17 |
| A4G A67G | 1.16 |
| U3C G75A | 0.11 |
| U3C G75C | 0.08 |
| U2G U38A | 1.08 |
| U3C A11G | 1.34 |
| A4G A91G | 1.13 |
| A4G A91U | 1.36 |
| U3C U39G | 1.72 |
| A4G A55U | 1.33 |
| U3A A5U | 0.64 |
| A4C C81U | 0.79 |
| U2G A140G | 1.09 |
| U2G A118G | 0.66 |
| U2G A92G | 0.73 |
| U3A U139A | 1.89 |
| U3C G7A | 0.99 |
| A4C U43A | 0.94 |
| U3C A52U | 1.8 |
| U2G U102C | 0.94 |
| U3A A89G | 1.51 |
| A4G A114G | 0.76 |

| Variant | self-cleavage |
| --- | --- |
| A4G A129G | 0.78 |
| U3A U131C | 0.64 |
| U3C A96G | 1.3 |
| U3C A96U | 1.02 |
| A4G A33G | 1.14 |
| U3C U103A | 0.64 |
| A4G A18G | 1.23 |
| U3C U87C | 0.63 |
| U3C U57A | 0.88 |
| U3C U57C | 1.28 |
| U3A A126G | 1.73 |
| U2G G93U | 1.01 |
| U3G A30G | 1.12 |
| A4G A60G | 1.27 |
| U2C U122A | 1.85 |
| U2G U132C | 1.4 |
| U3A A116G | 0.32 |
| U2G U3C | 1.11 |
| U2C U102A | 0.73 |
| U2C U102C | 0.64 |
| U2C U139A | 0.92 |
| U3C A24G | 0.9 |
| A4G A78G | 0.59 |
| U3C U72A | 0.17 |

| Variant | self-cleavage |
| --- | --- |
| U3C U120C | 1.42 |
| U3C U120A | 1.72 |
| A4G A125G | 0.55 |
| A4C U87C | 0.81 |
| U3C U43C | 0.78 |
| U3C A51U | 1.27 |
| U3C A51C | 0.84 |
| U3C U122C | 1.32 |
| A4G A126G | 1.09 |
| U2G A63C | 0.7 |
| A4G A36G | 1.43 |
| A4G A47C | 0.42 |
| U3C A129G | 1.14 |
| U3G A140G | 1.39 |
| A4G A117U | 0.81 |
| A4G A117G | 1.18 |
| U3C A98C | 1.18 |
| U3C A98G | 0.6 |
| U2G A116G | 0.37 |
| U3C A60G | 0.93 |
| A4G A111G | 0.1 |
| A4G A54G | 0.55 |
| U3A A18G | 1.11 |
| U3C A22G | 1.33 |

| Variant | self-cleavage |
| --- | --- |
| U3C A66G | 1.45 |
| A4G A11G | 0.86 |
| U3A A47U | 1.18 |
| U3C C101U | 0.51 |
| U3C A140G | 0.65 |
| U3A A125G | 0.39 |
| U3A A22G | 1.2 |
| U2G A23G | 0.75 |
| U2G A94G | 0.48 |
| U3C U26C | 1.29 |
| U3C A118U | 1.94 |
| U3C A118G | 0.54 |
| U2C U130C | 1.06 |
| U3C U9C | 1.36 |
| U3C U9A | 0.85 |
| U3A A64G | 1.11 |
| U3C C109G | 0.04 |
| U3C G84C | 0.37 |
| U2C U133C | 0.71 |
| U3C U97C | 1.12 |
| U3C U37C | 1.05 |
| U3C A5G | 1 |
| A4G A110U | 1.15 |
